Data taken from patent publication US20090305339A1, “Polypeptides With Laccase Activity” (VIALACTIA BIOSCIENCES (NZ) LIMITED, priority 2006, published 2009).

Tests used:
Type in all cases: biochemical
[1] = Oxidative reactions of various compounds (substrate preference, overall kinetics, pH range); settings: order of oxidized substrates
Experimental: (§1) Laccase activity was determined spectrophotometrically in a thermostated spectrophotometer (Perkin-Elmer) at 40° C. in 100 mM sodium citrate buffer, pH 4.5 (1 ml). The standard assay was performed at 530 nm, using SGZ as the oxidation substrate (ε530=64,000 M^−1cm^−1). The reaction was started by adding SGZ, from a stock solution in methanol, to a final concentration of 20 μM. […] Oxidation of phenol red (75 μM) was determined by the decrease in absorbance at 432 nm. The activity:pH and activity:temperature relationships were determined by incubating the enzyme:substrate mixtures at different pH values and constant temperature (40° C.), and at different temperatures (15-80° C.) and constant pH (4.5), respectively. Catalytic constants were derived by fitting the experimental data onto the Michaelis-Menten model. Control measurements without enzyme were carried out to correct for possible chemical oxidation of the substrates.

[2] = Oxidation of benzo[a]pyrene (HPLC); settings: 50 μM benzo[a]pyrene, HOBt, pH 4.5, overnight, room temperature
Source text: Procedures for cloning, expression and purification of laccase are described in the reference: Beloqui, A., et al. (2006), which is made part of the disclosure of the present application.
Benzo[a]pyrene was oxidized, however the oxidation products haven't been identified yet.

[3] = pH- and temperature-dependent activity and inactivation profiles
Experimental: FIG. 2A represents the effect of various pH values on the activity of recombinant purified RL5 laccase. The activity was measured at 40° C. using 1 mM SGZ (syringaldazine) or DMP as substrate. The buffers (100 mM) used were: citrate (pH 3.0-5.5), MES (pH 5.5-7.0), HEPES (pH 7.0-8.0), Tris-HCl (pH 8.0-9.0) and glycine-NaOH (pH 9.0-12). The activity of RL5 for DMP reached an optimum at a broad pH ranging from 3.5-9.0, being optimal at 4.0-5.0; however, it maintained more than 70% activity at pH 3.5 and 9.0 (FIG. 2A).
FIG. 2B represents the pH inactivation of purified RL5 laccase in sodium citrate pH 4.5 (indicated with “∘”) or glycine-NaOH pH 9.0 (indicated with “[…]”) over a time period of 240 min. 100% activity in the purified protein sample equals 7.2 units/mg (measured at 40° C.).
FIG. 2C represents the effect of the temperature on the activity of recombinant purified RL5 laccase. The enzyme activity was assayed at each indicated temperature in sodium citrate pH 4.5 in the presence of 1 mM SGZ or DMP. Activity was monitored at 420 nm. Protein activity increased as the temperature was raised to a maximum at ˜60° C. Therefore, RL5 is stable at high temperatures.
FIG. 2D represents the thermal inactivation of purified RL5 laccase. Purified enzyme was incubated in vials at 60° C. ([…]) or 65° C. (∘). At the indicated times, samples were withdrawn and tested for laccase activity at 40° C. by using SGZ or DMP as a substrate. 100% activity in the purified protein sample equals 17.2 units/mg.
Corresponding experiments were performed with BT4389 and YfiH under conditions as described above for FIGS. 2A to 2D (data not shown). The activity of these enzymes reached an optimum at a temperature of 52° C. (for BT4389) and 44° C. (for YfiH) and the thermal activity maintained for more than 80% at 55° C. (for BT4389) and at 50° C. (for YfiH). The activity of both enzymes reached an optimum at a pH range from 4.5 to 6.0 (for BT4389) and from 5.5 to 8.4 (for YfiH), although 80% activity maintained at pH 4.0 to 7.5 (for BT4389) and 5.0 to 9.0 (for YfiH).
as §1

B1: RL5: polypeptide with laccase activity from bovine rumen metagenome library, amino acid sequence of FIG. 11 (protein)
chain: MIELEKLDFAKSVEGVEAFSTTRGQVDGRNAYSGVNLCDYVGDDALRVLDARLTLAMQLGVDLDDLVMPRQTHSCRVAVIDERFRALDIDEQEAALEGVDALVTRLQGIVIGVNTADCVPIVLVDSQAGIVAVSHAGWRGTVGRIAKAVVEEMCRQGATVDRIQAAMGPSICQDCFEVGDEVVEAFKKAHFNLNDIVVRNPATGKAHIDLRAANRAVLVAAGVPAANIVESQHCSRCEHTSFFSARRLGINSGRTFTGIYRK
modifications: Description of sequence Amino acid sequence of RL5 laccase 3217 to 2414 frame 1 - 262 amino acids (see Figure 11)
substrate preference [1]: SGZ>DMP>veratryl alcohol>guaiacol>tetramethylbenzidine>4-metoxybenzyl alcohol>2ABTS>phenol red
oxidation of benzo[a]pyrene [2]: oxidized
pH optimum of activity ([3]; 40° C., 1 mM substrate, 100 mM buffers): 4.0-5.0 pH
activity maintained at pH 3.5 and 9.0 ([3]; DMP, 40° C.): more than 70%
broad pH range of activity ([3]; DMP, 40° C.): 3.5-9.0 pH
thermal stability ([3]; incubated at 60° C. or 65° C.): highly stable at this temperatures over a long time period, for at least four hours
100% activity in the purified protein sample ([3]; pH inactivation experiment, measured at 40° C.): 7.2 units/mg
temperature optimum of activity ([3]; sodium citrate pH 4.5, 1 mM SGZ or DMP): ~60 °C
pH stability ([3]; sodium citrate pH 4.5 or glycine-NaOH pH 9.0, 240 min): highly stable over a long time period at these pHs
100% activity in the purified protein sample ([3]; thermal inactivation experiment, tested at 40° C., SGZ or DMP): 17.2 units/mg
